Results on one molecule are retold here after article PMC9916714, “NMR Analysis Suggests Synergy between the RRM2 and the Carboxy-Terminal Segment of Human La Protein in the Recognition and Interaction with HCV IRES”.

What all share (assay): ITC; 50 mM KPi pH 7, 25 C; 50 mM KPi pH 7; ITC at 25 C (50 uM protein in cell, 500 uM RNA in syringe); NMR at 298 K, 0.1 mM protein, 90% H2O/10% D2O
What all share (conditions): protein: recombinant; tags: IMAC tag (pET20b+; tag not specified)
Background: ITC needs no label: the signal is the heat of the interaction.

In one series the target is T1, La RRM1-RRM2-Cter (Homo sapiens, UniProt P05455 105-408).
T1 sequence: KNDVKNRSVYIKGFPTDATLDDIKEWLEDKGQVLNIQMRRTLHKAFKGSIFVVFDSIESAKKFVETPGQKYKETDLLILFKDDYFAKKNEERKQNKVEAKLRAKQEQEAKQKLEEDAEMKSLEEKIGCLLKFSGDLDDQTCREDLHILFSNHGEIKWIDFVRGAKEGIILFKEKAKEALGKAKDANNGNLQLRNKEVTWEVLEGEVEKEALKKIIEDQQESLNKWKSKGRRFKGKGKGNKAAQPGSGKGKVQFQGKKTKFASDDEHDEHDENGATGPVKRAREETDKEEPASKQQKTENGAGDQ

For a further series, the target named is T2, La RRM1-RRM2-SBM (Homo sapiens, UniProt P05455 105-359).
T2 sequence: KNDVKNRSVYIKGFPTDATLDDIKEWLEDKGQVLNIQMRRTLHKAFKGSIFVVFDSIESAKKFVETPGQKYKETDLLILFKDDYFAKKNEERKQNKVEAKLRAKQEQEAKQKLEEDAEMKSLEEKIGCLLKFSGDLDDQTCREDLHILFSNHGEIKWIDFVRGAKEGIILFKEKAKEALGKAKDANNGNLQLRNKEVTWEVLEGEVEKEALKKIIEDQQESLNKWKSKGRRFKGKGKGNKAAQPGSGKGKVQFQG

In another series the target is T3, La RRM2-SBM (Homo sapiens, UniProt P05455 225-359).
T3 sequence: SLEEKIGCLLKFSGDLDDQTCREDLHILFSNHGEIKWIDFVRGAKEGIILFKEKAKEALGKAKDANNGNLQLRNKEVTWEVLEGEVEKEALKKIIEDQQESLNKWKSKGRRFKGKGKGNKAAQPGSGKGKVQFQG

Another series addresses T4, La RRM2-Cter (Homo sapiens, UniProt P05455 225-408).
T4 sequence: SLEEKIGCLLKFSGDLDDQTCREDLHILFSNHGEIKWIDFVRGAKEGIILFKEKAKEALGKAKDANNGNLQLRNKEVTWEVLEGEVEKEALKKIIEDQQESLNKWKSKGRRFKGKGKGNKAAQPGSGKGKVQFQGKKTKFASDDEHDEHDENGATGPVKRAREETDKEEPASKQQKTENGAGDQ

A word on the Kd: it is a measure of binding affinity in units of concentration. As for AGACCGUGCACCAUGAGCACGAAUCCA (structured_RNA) [HCV-IRES domain IV], the Kd in the series with La RRM1-RRM2-Cter was 9.76 ± 1.1 µM; with La RRM1-RRM2-SBM, 10.3 ± 2.04 µM; with La RRM2-SBM, 28.2 ± 1.21 µM; in the series with La RRM2-Cter, 15.3 ± 1.49 µM.
